Measurements taken from paper PMC5382683, “Identified of a novel cis-element regulating the alternative splicing of LcDREB2”.

Molecular target: T1, RSZp21b (Oryza sativa, UniProt Q6K4N0 1-185)
T1 sequence: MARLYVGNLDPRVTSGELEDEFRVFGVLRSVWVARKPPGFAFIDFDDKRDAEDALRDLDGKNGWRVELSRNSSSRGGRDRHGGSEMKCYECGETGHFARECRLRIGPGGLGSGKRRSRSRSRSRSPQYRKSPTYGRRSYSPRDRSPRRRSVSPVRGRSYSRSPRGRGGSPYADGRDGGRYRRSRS
Assay: EMSA; LightShift Chemiluminescent EMSA Kit (Pierce 20158) per manufacturer; 100-fold unlabeled probe as competitor; buffer, salt, pH, temperature not stated
Settings: protein: recombinant; tags: His (pET30a, Ni column)

B1: E3-2 (ssRNA)
RNA: ACUCUUGGCGCAGCAAAAGGGAGAUGCGC
B1: binds.
